{"source": "the supplement of paper PMC12636428", "data": [{"test_system": "Saccharomyces cerevisiae", "assay": "transcriptional activation domain activity (GFP:mCherry ratio, weighted mean of sorted bins, harmonized to initial dataset scale) (arbitrary fluorescence ratio units); higher = stronger transcriptional activation", "details": "beta-estradiol 1 µM; induction time 4 h", "in_short": "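The activation activity of each tile is the read-weighted mean of bin median fluorescence, averaged across its barcodes and mapped linearly onto the scale of the initial dataset. Tiles were fused to an estradiol-inducible synthetic transcription factor, barcoded, and integrated at URA3 in yeast diploids carrying a GFP reporter. Induction used 1 uM beta-estradiol in SC for 4 hours at 30 °C, after which cells were sorted into 8 GFP:mCherry bins, and any tile with fewer than 50 reads was dropped.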", "values": [{"sequence": "MYRLQCGVIYSLYVMCFMLLQMLLCVCVVSESFFFFLFLALIVWSPVYIILRV", "transcriptional activation domain activity": 41900}, {"sequence": "MYRWISSIDAICVHLWGYMKNLACLLLTHIFYCLASMCLLLVDTLITGVGNIP", "transcriptional activation domain activity": 61100}, {"sequence": "MYSFRLISLMLLSAIALVAANPLMIRIWPLRGGSLTFNLLLLFRWLDFQFVSH", "transcriptional activation domain activity": 59900}, {"sequence": "MYSIGVLTWKHDIGFFEDLLWSWCRVCFERYYTNVSPCTKLLSMELLLNCLLG", "transcriptional activation domain activity": 69100}, {"sequence": "MYSRIFIGLSFFLISFFISIIFLFICKEHSFSPIGFFLTRFLLFHVFSLFFTF", "transcriptional activation domain activity": 62800}, {"sequence": "MYTHALDPHDAANGLYSCLPCFYIFISTDDVARKIVLVPCIPLLKYALHAIQL", "transcriptional activation domain activity": 61900}, {"sequence": "MYTYTITFLSFISTIPLHSFLLFEQAYEYLCILLSLTVCLQTQLLLNICLLPF", "transcriptional activation domain activity": 73000}, {"sequence": "MYVCVYIFGCYLFGFMIFVYFFPIYFFNSLFSCSYFFFLLIYSFILFIYSVAA", "transcriptional activation domain activity": 44800}, {"sequence": "MYVEIFFLSLVWRIIIVLSLTSKGVFFNITYLFFRFLFSLVLCIFFFLHFFSL", "transcriptional activation domain activity": 43100}, {"sequence": "MYVGGVFSVSLFESVCYFVIFFSSLDLLLLLLLLFFSFLFFSFLFFFFSLVPS", "transcriptional activation domain activity": 44800}, {"sequence": "MYVISGFVFLIGLLLFVMLFDTTHLCVLVLFSFLYHSGSLCRPCHTPVILLYF", "transcriptional activation domain activity": 44000}, {"sequence": "MYVLAISQTRAWTNLNLFRSCMVGLVNLCVILLKMLPIVVFCTLWYNVDLNIP", "transcriptional activation domain activity": 73400}, {"sequence": "MYVLARVRMFSSGSRLLRLDRVRGYMLWLILLVVYVYLALTCISFRPPFFYHS", "transcriptional activation domain activity": 71600}, {"sequence": "MYVWYSLSFLFPPTSPSLFLFLFYLFIYSLFYFFFYFSPYFFSFFLSSYTLHY", "transcriptional activation domain activity": 63000}, {"sequence": "MYWNYPGFIWPLGFPWFFFFFFFRSGSLLPRPCPVDTVFHFQFFFFFFFFFFF", "transcriptional activation domain activity": 51300}, {"sequence": "MYYCLFFFFVSFCISLCFFYYYSQLCFFSTSFFAVSRGFFFISLSFLVCVWTI", "transcriptional activation domain activity": 57300}, {"sequence": "MYYCLFSFLFFLFAFPCVFLLLFTVFFSPYFFFAGFFFYLSLSLLVCVWTIDE", "transcriptional activation domain activity": 41600}, {"sequence": "MYYDKRSAMLQGLLLMGPRACGFHWSCILAILGLATLVSVDLVQLSYHLPRAV", "transcriptional activation domain activity": 32700}, {"sequence": "MYYIIISYDYFLIILIPIIDTCYPFKDFCIIFFIYPLLLHYAIFYYLRLVFIY", "transcriptional activation domain activity": 45100}, {"sequence": "MYYILMFLIYTCQLLLLLINLHWLAVACDTFPSWPLMQTNFYFCLLLLVTLFR", "transcriptional activation domain activity": 31900}, {"sequence": "MYYIVIYAFLYGIKYTHWIYFLSNNLVFWFLLLHFRHSHYGSLSYRYIIDHLL", "transcriptional activation domain activity": 62500}, {"sequence": "MYYLLLPLAYSLSHSVFFFFSVFLLRVLQYHGWWPFLLSSLCVFFLACVFVKG", "transcriptional activation domain activity": 27100}, {"sequence": "MYYLYLSFCFLIVFFFFFFPLYCCCRLLFFSSSFVLFLSVLIILIPTFHAFFP", "transcriptional activation domain activity": 67800}, {"sequence": "NADGMDGEKFYKSIDSAYGFANSSLVHLLLHDQKLLMRLRYLRRLFFGAESDW", "transcriptional activation domain activity": 48800}, {"sequence": "NAEYICHYKGGLIGKHFKSLAQVMPFLIQDLLLRTVLDGWTCIGELVVYVWHM", "transcriptional activation domain activity": 65800}, {"sequence": "NAFGAYSTDPSNIAEGLNTVGFRSGFAFFFVSMGIMCLIYLVCSLRTNVCFFM", "transcriptional activation domain activity": 26100}, {"sequence": "NAIISNLMLGMLLFCGSLYLLITFLPILSSDCPYSTPMSVPWWRILRALGAVG", "transcriptional activation domain activity": 37900}, {"sequence": "NANADAAAGNANADAGMANAGNNAAAGNANQAKGKGKKKNKAKGKAAGAGAGA", "transcriptional activation domain activity": 29500}, {"sequence": "NANADSNIAGNPKNNDATIDNELTQILNEYNMNFNDNLGTSTSGKNKSACPSS", "transcriptional activation domain activity": 54200}, {"sequence": "NANNANTNANANNNAATTNANANGNGKKGKNNNNNANANANANANAAAAAAAG", "transcriptional activation domain activity": 18400}, {"sequence": "NANVKLCVDGKWDKMCLMCTGDGTSSGVWRLCERILGSARCVIESIGCWVVLC", "transcriptional activation domain activity": 60600}, {"sequence": "NAPTADTDIATNLGKERNENFGMLNYNYEALLHFNDEHFNELNSIDPALISKY", "transcriptional activation domain activity": 107000}, {"sequence": "NASPAAVVATTATATPERAVSAAAGDNNASTLTKRGRGRPRKAAKHTQAQTQA", "transcriptional activation domain activity": 36500}, {"sequence": "NASVTREVPQFDTSANQMLSDIWSWIYYSEEFLAIPPSMVEGYDFSWQGLLGI", "transcriptional activation domain activity": 120000}, {"sequence": "NAVIKDFACVNECLARCSHVITTRRIIYILQLRVHCVAYSLPILNLPLFFFSR", "transcriptional activation domain activity": 55300}, {"sequence": "NAVNKSRGMVKGSGRKLHQQKGTGRARMRDAQNPIRRGGGRAFAKTTARNWLV", "transcriptional activation domain activity": 29500}, {"sequence": "NCLKLGCDCLGMIHYFDGFICSHKGLPIKLENVICMHEQDNGLMWKHTHFRTN", "transcriptional activation domain activity": 40800}, {"sequence": "NCLLHIMRFLPFLELKQFIIAYRRFDIYACAESAIHLQYLDFFNFWMDPSFLL", "transcriptional activation domain activity": 49700}, {"sequence": "NCMLRTIHLIWESNLSCTCIVNMLVLPCLHTLSITQCLYERKDKDPNPVILEA", "transcriptional activation domain activity": 59000}, {"sequence": "NCSFIFLMLNCILAAFCFYNLSSIMNGLVYFDQFSLIPPLHLGLVTLGMCVLL", "transcriptional activation domain activity": 46400}, {"sequence": "NCTNLPSVVVVGGSVPIDSQGLQIWSLLIYSIVLVPGLNLVVSSLIFLGIFWL", "transcriptional activation domain activity": 30000}, {"sequence": "NCVGHFTYGHFLRFLFYVDVACAYHLSMITWRVFHAMHASYWASPFTEMIFII", "transcriptional activation domain activity": 65500}, {"sequence": "NCVNLSFQLLFGELVVFLISLYMSVLYGLLYMFFVAQLPPEVRLIPMMCSCWF", "transcriptional activation domain activity": 59700}, {"sequence": "NDFEKLEFFNKYAKVNTNNDVNENNDLWNSYLQSMDDTTGKNSGNYQQVDNDD", "transcriptional activation domain activity": 35700}, {"sequence": "NDGNESNEDYLGNEKFYLNEILPDEESKLRWKRVFENSENDHDNEKNFLTDWE", "transcriptional activation domain activity": 39900}, {"sequence": "NDLFAWPWGNPIDLDVAIALQETSIGCYNKRTTVFYANSCNTLLSLLVNKFLL", "transcriptional activation domain activity": 33300}, {"sequence": "NDREDDGEDEEEDNGGGGRQQRRKKGSAQRAGKLKPATESDEDEDKPEEEADD", "transcriptional activation domain activity": 29200}, {"sequence": "NDTKKNMSTSNLFPFSFSNTDLTALFTHPEGPNCTNTNNGNVDVCNRASTDAT", "transcriptional activation domain activity": 51400}, {"sequence": "NEEEEEASDHEAEEPKPKKKRGRLAKEVDEEPEAPAPKKARGRPRKAVVKEED", "transcriptional activation domain activity": 24400}, {"sequence": "NEEKGGKDAASRESAVHVYGTLGSRIGRGPRSPSVLSRSFHDIHDCLACVLVV", "transcriptional activation domain activity": 56900}, {"sequence": "NEENIRREQDAADEIAQKLRDDIRSRTGCDVSVGIGSNILQAKVALRKGKPAG", "transcriptional activation domain activity": 35200}, {"sequence": "NEEQTINLINYVLTCSNTVIRNTVFRNKVLNLLVSMILALKTPDYFIIFKIVV", "transcriptional activation domain activity": 74300}, {"sequence": "NEGCKIITVFNGIFGIVYSFAPMCYFCLCIRVFFFALYKRHWYYHALLSLFWL", "transcriptional activation domain activity": 70700}, {"sequence": "NEITIQDLNFLQFSSIPKLWENKTLEPGEEYHHSNGTNTDNNETTGADDTDDN", "transcriptional activation domain activity": 24500}, {"sequence": "NELAVLVDGLNRVLLTHKDDIGIISHVMLAYMIAATRFKRLFVSGGGYMLFMP", "transcriptional activation domain activity": 45800}, {"sequence": "NESGPGAADEDAEEDDEESDEDGAGRKRKKPKVEPKPKPERKAPAPAPADGEK", "transcriptional activation domain activity": "< 6570"}, {"sequence": "NFDWWAKYNCESLRDAVIGFLTRDCLDSRVGYFRSVVRWIGCRLYFGLLIIFF", "transcriptional activation domain activity": 72700}, {"sequence": "NFFLKDNAPVLQEYLAVFRHLLSFHDPELSSHLDTIGFMPDLYAIPWFLTLFT", "transcriptional activation domain activity": 16300}, {"sequence": "NFFSCLSFLFLFIFLFIFLLFHFPYLFSFQFCLLPIFSHFSIDHQKPYPFPSF", "transcriptional activation domain activity": 37700}, {"sequence": "NFGLMSGLYLYVCILGDSWCPSIDLIFNWMSYAYLWNVYIFLLEIIPVTLMVL", "transcriptional activation domain activity": 72100}, {"sequence": "NFIIQGNSMISTPSGRNDLPDTSPMSSIQTASPPSQLLTDQGFADLDNFMSSL", "transcriptional activation domain activity": 74500}, {"sequence": "NFLLNVSVVTRWFLFIVPVLGLLWIPGILSVTSFPNATVWSVRLLWWSIWLTV", "transcriptional activation domain activity": 63900}, {"sequence": "NFMNNEITASKIDDGNNSKPLSPGWTDQTAYNAFGITTGMFNTTTMDDVYNYL", "transcriptional activation domain activity": 120000}, {"sequence": "NGEDAAPAAEPAGTSTADAVGGTTALPAAYRLKAFISHKGPSVHSGHYVVHIR", "transcriptional activation domain activity": 52700}, {"sequence": "NGELPHENGGRETKVKFEGTAAPKESRIGQMRQHLLLLAESQHRFIRHCGTHG", "transcriptional activation domain activity": 29600}, {"sequence": "NGFCYSAITGGSIVLLLPGWYVFFYSLELQSRSMLCGSIRLGWAIIYAFFLGF", "transcriptional activation domain activity": 58900}, {"sequence": "NGFLLQVVRWNTRPHKEVVQLLTKYFTGAKHQRLLSENIGLIAEWTDRICQLG", "transcriptional activation domain activity": 58900}, {"sequence": "NGGCDYVFSMYVLGAGLWLFIFFLPPIIFSIVCLCYLALIWAVSWVLLWCLVF", "transcriptional activation domain activity": 49600}, {"sequence": "NGGGEQPKGGRGGKSEGGAGNDQGRTNNRGRGDRRGGRGGRDNRGGRGGGSRD", "transcriptional activation domain activity": "< 6570"}, {"sequence": "NGGLSELKERLDEGRASYAYVKVTYSNDKESTREKFILVIWIGSSCKVMRKAK", "transcriptional activation domain activity": 42900}, {"sequence": "NGHGTHCSGTVAGKKYGVAKKANIKAVKVLRSNGSGTMSDVVKGVEFAAEQHS", "transcriptional activation domain activity": 15600}, {"sequence": "NGHGTHCSGTVAGKKYGVAKKANVYAVKVLRSNGSGTMSDVVKGVEEAVKMHN", "transcriptional activation domain activity": 37500}, {"sequence": "NGHIYPLSLNLFCFFSPMHAILYCFSISWDDYLSLAVLHSGLTIQMVLLVWHF", "transcriptional activation domain activity": 50000}, {"sequence": "NGIFILHHKWVIPTPFASHAFNPFDGFLQSLPYHLYVFMLPMHKWLYLGMFVF", "transcriptional activation domain activity": 71400}, {"sequence": "NGLENAASVITILDKSSNGTFINGEKIGKGQQRLLKDGNEVSFGVCVRSTENN", "transcriptional activation domain activity": 24500}, {"sequence": "NGLLRDVHVVFQDSSFCARLTEQIRRRLRMISSNWRETCCMEMLITLSLRLFH", "transcriptional activation domain activity": 45100}, {"sequence": "NGNMIVNFFYKNIICIGCLWWFQIYCGWSSQYVFEYTYLLFWNVFWSLCPVIA", "transcriptional activation domain activity": 38800}, {"sequence": "NGPGTCVVLVLITYIRRMLGLRYSQVIYVESFARVKKLSLSGKLLKPFVDKFV", "transcriptional activation domain activity": 54600}, {"sequence": "NGPQGQQQQGQRAGQRGQGAGAGEAGQQNGQQGQQAGQRGRGTQAGAAGQQNG", "transcriptional activation domain activity": 20600}, {"sequence": "NGPRRNNNTPNNSPLNPGENGTSRPPRQRNPRNRPPRPRTQDNAPEPSEPASG", "transcriptional activation domain activity": 19800}, {"sequence": "NGQRFVQLLCNECGTVLELSVLLASVYLSLNMGDLVRLQPGCLYESQKRQWGP", "transcriptional activation domain activity": 16300}, {"sequence": "NGTPETHGESIDSKRPRACEACRGLKVKCEPDPTNPDGPCKRCTKANRNCVVT", "transcriptional activation domain activity": 25800}, {"sequence": "NHCKVFFLSFLFFVIYNYLLFILFFYILLLYCYPKPLFPLLSSSPPSFPPQFI", "transcriptional activation domain activity": 50300}]}]}
